# Results published in the RNAGym collection of RNA variant scans (doi:10.1093/nar/gkz1192).
# B1: CPEB3 Ribozyme (parent)
# chain: UAACAGGGGGCCACAGCAGAAGCGUUCACGUCGCAGCCCCUGUCAGAUUCUGGUGAAUCUGCGAAUUCUGCUGUAUAUCUC
# Variants of: B1
# Assay: self-cleavage, relative activity (ratio to wild type); higher = more cleavage; in vitro, sequencing
# Outline: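 CPEB3 self-cleaving ribozyme mutant libraries were made by rounds of error-prone PCR, barcoded, and transcribed in vitro with T7 RNA polymerase for 5 hours at 37°C. Cleavage occurred during transcription and a 15 min DNase I step before EDTA stop. RNAs were reverse transcribed with template switching and Illumina-sequenced, with DNA sequencing mapping barcodes to variants. Relative activity is the variant's cleaved/total read fraction divided by wild type's (minimum 5 reads), averaged across three batches.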
row,Variant,self-cleavage
1,UAACAGGGGGCCACAGCAGAAGCGUUCACGUGGCAGCCCCUGUCAGAUUCUGGUGAAUCUGCGAAUUCCGCUGUAUAUCUC,0.44
2,UAACAGGGGGCCACAGCAGAAGCGUUCACGUAGCAGCCCCUGUCAGAUUCUGGUGAAUCUGCGAAUACUGCUGUAUAUCUC,0.13
3,UAACAGGGGGCCACAGCAGAAGCGUUCACGUGGCAGCCCCUGUCAGAUUCUGGUGAAUCUGCGAAUUCUGCCGUAUAUCUC,0.11
4,UAACAGGGGGCCACAGCAGAAGCGUUCACGUGGCAGCCCCUGUCAGAUUCUGGAGAAUCUGCGAAUUCUGCUGUAUAUCUC,0.19
5,UAACAGGGGGCCACAGCAGAAGCGUUCACGUAGCAGCCCCUGUCAGAUUCUGGUGAAUCUGCGAAUUCUGCUGUAUAUCCC,0.69
6,UAACAGGGGGCCACAGCAGAAGCGUUCACGUAGCAGCCCCUGUCAGAUUCUGGUGAAUCUGCGAAUUCUGCUGUAUAUCAC,0.37
7,UAACAGGGGGCCACAGCAGAAGCGUUCACGUGGCAGCCCCUGUCAGAUUCAGGUGAAUCUGCGAAUUCUGCUGUAUAUCUC,0.04
8,UAACAGGGGGCCACAGCAGAAGCGUUCACGUAGCAGCCCCUGUCAGAUUCUGGUGAAUCUGCGAAUUCUGCUGUAUACCUC,0.2
9,UAACAGGGGGCCACAGCAGAAGCGUUCACGUGGCAGCCCCUGUCAGAUUCUGGUGAAUCUGCGAAUUCUGCUAUAUAUCUC,0.22
10,UAACAGGGGGCCACAGCAGAAGCGUUCACGUAGCAGCCCCUGUCAGAUUCUGGUGAAUCUGCGAAUUCUGCUGCAUAUCUC,0.22
11,UAACAGGGGGCCACAGCAGAAGCGUUCACGUGGCAGCCCCGGUCAGAUUCUGGUGAAUCUGCGAAUUCUGCUGUAUAUCUC,0.11
12,UAACAGGGGGCCACAGCAGAAGCGUUCACGUGGCAGCCCCAGUCAGAUUCUGGUGAAUCUGCGAAUUCUGCUGUAUAUCUC,0.32
13,UAACAGGGGGCCACAGCAGAAGCGUUCACGUUGCAGCUCCUGUCAGAUUCUGGUGAAUCUGCGAAUUCUGCUGUAUAUCUC,0.08
14,UAACAGGGGGCCACAGCAGAAGCGUUCACGUUGCAGCCCCUGUCAGGUUCUGGUGAAUCUGCGAAUUCUGCUGUAUAUCUC,0.19
15,UAACAGGGGGCCACAGCAGAAGCGUUCACGUUGCAGCCCCUGUCAGUUUCUGGUGAAUCUGCGAAUUCUGCUGUAUAUCUC,0.32
16,UAACAGGGGGCCACAGCAGAAGCGUUCACGUGGCAGCCCCUGUCCGAUUCUGGUGAAUCUGCGAAUUCUGCUGUAUAUCUC,0.12
17,UAACAGGGGGCCACAGCAGAAGCGUUCACGUGGCAGCCCCUGUCUGAUUCUGGUGAAUCUGCGAAUUCUGCUGUAUAUCUC,0.08
18,UAACAGGGGGCCACAGCAGAAGCGUUCACGUAGCAGCCCCUGUCAGAUUCUGGUGAAUCUGCGAAUUCUGCUGUACAUCUC,0.25
19,UAACAGGGGGCCACAGCAGAAGCGUUCACGUUGUAGCCCCUGUCAGAUUCUGGUGAAUCUGCGAAUUCUGCUGUAUAUCUC,0.19
20,UAACAGGGGGCCACAGCAGAAGCGUUCACGUUGCAGCCCCUGUCAGAUUCUGGUGAAUCUGCGAAUUCUGCUGUAUCUCUC,0.15
21,UAACAGGGGGCCACAGCAGAAGCGUUCACGUGGCAGCCCCUGUCAGAUUCUGGUGAGUCUGCGAAUUCUGCUGUAUAUCUC,0.1
22,UAACAGGGGGCCACAGCAGAAGCGUUCACGUGGCAGCCCCUGUCAGAUUCUGGUGAAUCUGCGAAUCCUGCUGUAUAUCUC,0.09
23,UAACAGGGGGCCACAGCAGAAGCGUUCACGUUGCAGCCCCUGUCAGAUUCUGGUGGAUCUGCGAAUUCUGCUGUAUAUCUC,0.17

row,Variant,self-cleavage
1,UAACAGGGGGCCACAGCAGAAGCGUUCACGUUGCAGCCCCUGUCAGAUUCUGGUGUAUCUGCGAAUUCUGCUGUAUAUCUC,0.19
2,UAACAGGGGGCCACAGCAGAAGCGUUCACGUGGCAGCCCCUGUCAGAUUCUGGUGAAUCUGCGAAUUCUGCUGUAUUUCUC,0.2
3,UAACAGGGGGCCACAGCAGAAGCGUUCACGUAGCAGCCCCUGUCAGAUUCUGGUGAAUCUGCGAAUUCUGCGGUAUAUCUC,0.19
4,UAACAGGGGGCCACAGCAGAAGCGUUCACGUAGCAGCCCCUGUCAGAUUCUGGUGAAUCUGCGAAUUCUGCAGUAUAUCUC,0.12
5,UAACAGGGGGCCACAGCAGAAGCGUUCACGUAGCAGCCCCUGUCAGAUUCUGGUGAAUCUGCGAAUUCUGCCGUAUAUCUC,0.17
6,UAACAGGGGGCCACAGCAGAAGCGUUCACGUUGCAGCCCCUGUCGGAUUCUGGUGAAUCUGCGAAUUCUGCUGUAUAUCUC,0.15
7,UAACAGGGGGCCACAGCAGAAGCGUUCACGUUGCAGCCCCUGUCCGAUUCUGGUGAAUCUGCGAAUUCUGCUGUAUAUCUC,0.15
8,UAACAGGGGGCCACAGCAGAAGCGUUCACGUUGCAGCCCCUGUCUGAUUCUGGUGAAUCUGCGAAUUCUGCUGUAUAUCUC,0.3
9,UAACAGGGGGCCACAGCAGAAGCGUUCACGUUGCAGCCCCUGUCAGAUUCUGGUGAAUCUGCGAAUUCUGCUGUAUAUCUU,0.37
10,UAACAGGGGGCCACAGCAGAAGCGUUCACGUGGCAGCCCCUGUCAGAUUCUGGUGAAUCUGCGAAUUCUGCUGUAUACCUC,0.09
11,UAACAGGGGGCCACAGCAGAAGCGUUCACGUGGCAGCCCCUGCCAGAUUCUGGUGAAUCUGCGAAUUCUGCUGUAUAUCUC,0.37
12,UAACAGGGGGCCACAGCAGAAGCGUUCACGUUGCAGCCCCUGUCAGAUUCUGGUGAAUCUGCGAAUUCUGCUGUGUAUCUC,0.11
13,UAACAGGGGGCCACAGCAGAAGCGUUCACGUGGCAGCCCCUGUCAGAUUCUGGUGAAUCUGCAAAUUCUGCUGUAUAUCUC,0.14
14,UAACAGGGGGCCACAGCAGAAGCGUUCACGUAGCAGCCCCUGUCAGAUUCUGGUGAAACUGCGAAUUCUGCUGUAUAUCUC,0.37
15,UAACAGGGGGCCACAGCAGAAGCGUUCACGUGGCAGCCCCUGUCAGAUCCUGGUGAAUCUGCGAAUUCUGCUGUAUAUCUC,0.11
16,UAACAGGGGGCCACAGCAGAAGCGUUCACGUUGCAGCCCCUGUCAGAUUCUGGUGAAUCUGCGAAUUUUGCUGUAUAUCUC,0.2
17,UAACAGGGGGCCACAGCAGAAGCGUUCACGUUGCAGCCCCUGUCAGAUUCUGGUGAAUCUGCGAAUUGUGCUGUAUAUCUC,0.13
18,UAACAGGGGGCCACAGCAGAAGCGUUCACGUUGCAGCCCCUGUCAGAUUCUGGUGAAUCUGCGAUUUCUGCUGUAUAUCUC,0.13
19,UAACAGGGGGCCACAGCAGAAGCGUUCACGUUGCAGCCCCUGUCAGAUUCUGGUGAAUCUGCGAGUUCUGCUGUAUAUCUC,0.21
20,UAACAGGGGGCCACAGCAGAAGCGUUCACGUAGCAGCCCCUGUCAGAUUCUGGUGAAUCAGCGAAUUCUGCUGUAUAUCUC,0.17
21,UAACAGGGGGCCACAGCAGAAGCGUUCACGUGGCAGCCCCUGUCAGAUUCUGGUGAAUCUGCGAAUUCUGCUGUAUAUCUC,0.23
22,UAACAGGGGGCCACAGCAGAAGCGUUCACGUUGCAGCCCCUGUCAGAUUCUGGUGAAUCUGCGAAUUCUGCUGUAUAUCUC,0.28
23,UAACAGGGGGCCACAGCAGAAGCGUUCACGUUGCAGCCCCUGUCAGAUUCUGGUGAUUCUGCGAAUUCUGCUGUAUAUCUC,0.13

row,Variant,self-cleavage
1,UAACAGGGGGCCACAGCAGAAGCGUUCACGUUGCAGCCCCUGUCAGAUUCUGGUGAGUCUGCGAAUUCUGCUGUAUAUCUC,0.22
2,UAACAGGGGGCCACAGCAGAAGCGUUCACGUUGCAGCCCCUGUCAGAUUCUGGUGACUCUGCGAAUUCUGCUGUAUAUCUC,0.13
3,UAACAGGGGGCCACAGCAGAAGCGUUCACGUUGCAGCCCCUGUCAGAUUCUGGUGAAUUUGCGAAUUCUGCUGUAUAUCUC,0.12
4,UAACAGGGGGCCACAGCAGAAGCGUUCACGUAGCAGCCCCUGUCAGAUUCUGGCGAAUCUGCGAAUUCUGCUGUAUAUCUC,0.32
5,UAACAGGGGGCCACAGCAGAAGCGUUCACGUAGCAGCCCCUGUCAGAUUCUGGAGAAUCUGCGAAUUCUGCUGUAUAUCUC,0.29
6,UAACAGGGGGCCACAGCAGAAGCGUUCACGUUGCAGCCCCUGUCAGAUUCUGGUGAAUCUGCGAAUUCUGCUGUAUAUAUC,0.22
7,UAACAGGGGGCCACAGCAGAAGCGUUCACGUGGCAGCCCCUGUCAGAUUCUGGUGGAUCUGCGAAUUCUGCUGUAUAUCUC,0.12
8,UAACAGGGGGCCACAGCAGAAGCGUUCACGUAGCAGCCCCUGUCAGAUUCUGGUGAAUCUGCGAAUUCCGCUGUAUAUCUC,0.07
9,UAACAGGGGGCCACAGCAGAAGCGUUCACGUAGCAGCCCCUGUCAGAUUCUGGUGAAUCUGCGAAUUCAGCUGUAUAUCUC,0.18
10,UAACAGGGGGCCACAGCAGAAGCGUUCACGUGGCAGUCCCUGUCAGAUUCUGGUGAAUCUGCGAAUUCUGCUGUAUAUCUC,0.31
11,UAACAGGGGGCCACAGCAGAAGCGUUCACGUGGCAGCCCCUGUCAGAUUCUGGUGAAUCUGCGAAUUCUGCUGUAUAUCAC,0.1
12,UAACAGGGGGCCACAGCAGAAGCGUUCACGUGGCAGCCCCUGUCAGAUUCUGGUGAAUCUGCGAAUUCUGCUGUAUAUCCC,0.08
13,UAACAGGGGGCCACAGCAGAAGCGUUCACGUUGCCGCCCCUGUCAGAUUCUGGUGAAUCUGCGAAUUCUGCUGUAUAUCUC,0.18
14,UAACAGGGGGCCACAGCAGAAGCGUUCACGUUGCUGCCCCUGUCAGAUUCUGGUGAAUCUGCGAAUUCUGCUGUAUAUCUC,0.32
15,UAACAGGGGGCCACAGCAGAAGCGUUCACGUUGCGGCCCCUGUCAGAUUCUGGUGAAUCUGCGAAUUCUGCUGUAUAUCUC,0.18
16,UAACAGGGGGCCACAGCAGAAGCGUUCACGUUGCAGCCACUGUCAGAUUCUGGUGAAUCUGCGAAUUCUGCUGUAUAUCUC,0.15
17,UAACAGGGGGCCACAGCAGAAGCGUUCACGUGGCAGCCCUUGUCAGAUUCUGGUGAAUCUGCGAAUUCUGCUGUAUAUCUC,0.22
18,UAACAGGGGGCCACAGCAGAAGCGUUCACGUAGCAGCCCCUGUCAGAUUCUGGUGAAUCUGCGAACUCUGCUGUAUAUCUC,0.16
19,UAACAGGGGGCCACAGCAGAAGCGUUCACGUAGCAGCCCCUGUCAGAUUCGGGUGAAUCUGCGAAUUCUGCUGUAUAUCUC,0.31
20,UAACAGGGGGCCACAGCAGAAGCGUUCACGUGGCAGCCCCUGUUAGAUUCUGGUGAAUCUGCGAAUUCUGCUGUAUAUCUC,0.12
21,UAACAGGGGGCCACAGCAGAAGCGUUCACGUUGCAGCCCCUGUCAGAUUCUGGUGAAUCUGCGGAUUCUGCUGUAUAUCUC,0.3
22,UAACAGGGGGCCACAGCAGAAGCGUUCACGUUGCAGCCCCUGUCAGAUUCUGGUGAAUCUGCGUAUUCUGCUGUAUAUCUC,0.13
